Experimental data reported in patent US20230241258A1 (Bristol-Myers Squibb, published 2023).

How the values were obtained:
[1] = target: T1, human PD-L1 (human, UniProt Q9NZQ7 19-290); experiment: cell-based or functional assay
[2] = target: T1, human PD-L1; experiment: competition autoradiography on frozen tissue sections; unlabeled A02 at 0.025, 0.25, 2.5 and 25 nM displaces 0.25 nM 18F-DBCO-A02 radioligand
[3] = target: T1, human PD-L1; experiment: radioligand cell binding on ice for 1 hour, gamma counter
Protocol: After the incubation period, cell samples were centrifuged at 200×g and the supernatant was discarded. Cell pellets were resuspended in 1 mL PBS+0.5% BSA and the wash procedure repeated for a total of 3 washes. Following the final wash, cells were again centrifuged at 200×g and the supernatant was discarded. The radioactivity of the remaining cell pellets was then measured by gamma counter.

B1: [^18F]-radiolabeled-A02-PEG-DBCO-FPPEGA (designed binder)
chain: EVVAATPTSLLISWSYDGPIDRYYRITYGETGGNSPVQEFTVPPDQKTATISGLKPGVDYTITVYAVRLEEAHYNREFPISINYRTPC
modifications: C-terminal cysteine linked to Maleimide-PEG4-DBCO and clicked to [^18F]-FPPEGA (produced as described in Example 9)
maximum radiotracer uptake ratio, hPD-L1(+) L2987 vs. hPD-L1(-) HT-29 xenografts [1]: 3.53 ratio | radiotracer uptake in PD-L1(+) L2987 xenografts relative to PD-L1(-) HT-29 xenografts, PET in mice, co-injected with 3 mg/kg unlabeled A02 Adnectin [1]: 1.04 fold | radiotracer uptake in PD-L1(+) L2987 xenografts relative to PD-L1(-) HT-29 xenografts, PET in mice, final 10 minutes of the time-activity curve [1]: 3.05 fold

B2: A02 Adnectin, cold (unlabeled) (designed binder)
chain: B1 chain
notes: also called unlabeled anti-PD-L1 A02 adnectin
binding result [2]: binds

B3: [^18F]-E01-4PEG-DBCO-FPPEGA (designed binder)
chain: GVSDVPRDLEVVAATPTSLLISWRAQLSPSFYYRITYGETGGNSPVQEFTVPNDVMTATISGLKPGVDYTITVYAVTTHGVYFYSPISINYRTPC
modifications: C-terminal cysteine thiol linked to Maleimide-PEG4-DBCO, which is clicked to [^18F]-FPPEGA (^18F prosthetic group)
notes: also called ^18F-radiolabeled E01-4PEG-DBCO; ^18F-E01 adnectin radiotracer
fold cell associated radioactivity, PD-L1-positive L2987 cells over PD-L1-negative HT-29 cells [3]: 44.6 fold
